{
  "source": "paper PMC5770437",
  "about": "“The crystal structure of D-xylonate dehydratase reveals functional features of enzymes from the Ilv/ED dehydratase family” (Scientific Reports, 2018)",
  "molecules": {"B1": {"name": "6-phosphogluconate dehydratase from Shewanella oneidensis (enzyme)", "chain": "MHSVVQSVTDRIIARSKASREAYLAALNDARNHGVHRSSLSCGNLAHGFAACNPDDKNALRQLTKANIGIITAFNDMLSAHQPYETYPDLLKKACQEVGSVAQVAGGVPAMCDGVTQGQPGMELSLLSREVIAMATAVGLSHNMFDGALLLGICDKIVPGLLIGALSFGHLPMLFVPAGPMKSGIPNKEKARIRQQFAQGKVDRAQLLEAEAQSYHSAGTCTFYGTANSNQLMLEVMGLQLPGSSFVNPDDPLREALNKMAAKQVCRLTELGTQYSPIGEVVNEKSIVNGIVALLATGGSTNLTMHIVAAARAAGIIVNWDDFSELSDAVPLLARVYPNGHADINHFHAAGGMAFLIKELLDAGLLHEDVNTVAGYGLRRYTQEPKLLDGELRWVDGPTVSLDTEVLTSVATPFQNNGGLKLLKGNLGRAVIKVSAVQPQHRVVEAPAVVIDDQNKLDALFKSGALDRDCVVVVKGQGPKANGMPELHKLTPLLGSLQDKGFKVALMTDGRMSGASGKVPAAIHLTPEAIDGGLIAKVQDGDLIRVDALTGELSLLVSDTELATRTATEIDLRHSRYGMGRELFGVLRSNLSSPETGARSTSAIDELY", "notes": "6-phosphogluconate dehydratase, Shewanella oneidensis, GenBank WP_011072452; apo form as in PDB 2GP4 (no [Fe-S] cluster, no Mg2+); The crystal data were deposited by others (PDB 2GP4, unpublished); also called So6PGDHT; SoPGDHT"}},
  "key": {"[1]": {"target": "T1, D-xylonate dehydratase from Caulobacter crescentus (CcXyDHT) (Caulobacter vibrioides, UniProt Q9A9Z2)", "T1 construct": "gene xylD; N-terminal Strep-tag II kept; expressed in E. coli; homotetramer; residues 1-591 (Asn3-His591 modelled); Lys130 carbamylated", "T1 sequence (Q9A9Z2 6-595)": "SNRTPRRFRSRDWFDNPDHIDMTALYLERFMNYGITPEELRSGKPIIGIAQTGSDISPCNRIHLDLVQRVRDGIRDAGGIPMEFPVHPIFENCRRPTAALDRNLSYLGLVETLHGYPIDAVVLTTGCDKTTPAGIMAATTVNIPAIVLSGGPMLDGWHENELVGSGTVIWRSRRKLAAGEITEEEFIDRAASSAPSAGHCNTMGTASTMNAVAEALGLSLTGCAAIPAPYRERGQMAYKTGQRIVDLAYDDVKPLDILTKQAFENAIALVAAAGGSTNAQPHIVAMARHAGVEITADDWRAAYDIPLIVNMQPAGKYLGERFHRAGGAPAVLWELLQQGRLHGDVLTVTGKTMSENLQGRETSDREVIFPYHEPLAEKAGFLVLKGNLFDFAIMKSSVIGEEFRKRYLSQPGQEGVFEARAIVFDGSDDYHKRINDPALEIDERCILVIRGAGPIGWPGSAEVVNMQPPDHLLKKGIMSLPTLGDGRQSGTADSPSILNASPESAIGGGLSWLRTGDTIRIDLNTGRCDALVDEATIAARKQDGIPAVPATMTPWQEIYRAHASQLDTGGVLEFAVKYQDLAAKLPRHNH", "experiment": "X-ray crystal structure, […] Å", "format": "binding", "conditions": "holo form with Mg2+; Fe1 bound by Cys60 and Cys128, Fe2 by Cys200; active site"}, "[2]": {"target": "D-xylonate dehydratase from Caulobacter crescentus (Caulobacter crescentus)", "experiment": "crystal structure; holo-CcXyDHT at 2.7 Å, molecular replacement with 5J84, space group C2, a tetramer in the asymmetric unit; packing analysed with the PISA server"}, "[3]": {"target": "the molecule itself", "experiment": "crystal structure; re-refinement with PHENIX of the deposited apo So6PGDHT model (PDB 2GP4, 2.5 Å)"}},
  "data": [
    {"molecule": "[S]1[Fe][S][Fe]1", "note": "[[2Fe-2S] cluster]", "values": [
      {"measurement": "X-ray crystal structure, 2.7 Å", "setting": "[1]", "result": "The crystal structure of CcXyDHT suggests that the enzyme has a [2Fe-2S] cluster"}
    ]},
    {"molecule": "D-xylonate dehydratase from Caulobacter crescentus (enzyme)", "values": [
      {"measurement": "stoichiometry N", "setting": "[2]", "result": 4}
    ]},
    {"molecule": "B1", "values": [
      {"measurement": "stoichiometry N", "setting": "[3]", "result": 2}
    ]}
  ]
}
